These results are taken from patent publication US20260152732.

This data set has as its system T1, DNASE1-LIKE 3, Isoform 1 (wild-type human D1L3), purified.
T1 sequence: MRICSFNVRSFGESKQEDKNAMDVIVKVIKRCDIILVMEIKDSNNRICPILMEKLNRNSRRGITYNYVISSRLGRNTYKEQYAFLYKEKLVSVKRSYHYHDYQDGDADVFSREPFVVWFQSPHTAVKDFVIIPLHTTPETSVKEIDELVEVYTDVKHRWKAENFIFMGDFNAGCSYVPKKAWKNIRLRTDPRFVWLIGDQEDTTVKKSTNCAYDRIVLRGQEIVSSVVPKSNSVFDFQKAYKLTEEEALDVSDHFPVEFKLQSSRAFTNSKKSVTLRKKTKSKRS

Regarding plasmin (purified), the “proteolytic cleavage sites (digestion, fragments sequenced by LC and MS)” value is “plasmin cleaved D1L3 at the following arginine and lysine residues: R22, R29, K45, K47, K74, R81, R92, K107, K176, R212, R226, R227, K250, K259, and K262”. For trypsin the value was “trypsin cleaved D1L3 at the following arginine and lysine residues: R22, R29, R51, R66, R80, R81, R95, K99, R115, K147, K163, K180, R208, R212, R235, R239, K250, and K262”.
